Assay results as given in patent US20060204492A1 (published 2006).
Residue numbers refer to the chain shown, from its start.

B1: LM609 grafted antibody variant A102 (Fab, V domains shown)
VH: QVQLVESGGGVVQPGRSLRLSCAASGFTFSSYDMSWVRQAPGKGLEWVAKVSSGGGSTYYLDTVQGRFTISRDNSKNTLYLQMNSLRAEDTAVYYCARHNYGSFAAWGQGTTVTVSS
VL: EIVLTQSPATLSLSPGERATLSCQASQSISNHLHWYQQRPGQAPRLLIRYRSQSISGIPARFSGSGSGTDFTLTISSLEPEDFAVYYCQQSGSWPHTFGGGTKVEIK
notes: Fab
B2: LM609 grafted antibody variant D102 (Fab, V domains shown)
VH: B1 VH with A106D
VL: B1 VL
notes: Fab
B3: LM609 grafted antibody variant F32 (Fab, V domains shown)
VH: B1 VH with A106Y
VL: B1 VL with H32F
notes: Fab
B4: LM609 grafted antibody variant G102 (Fab, V domains shown)
VH: B1 VH with A106G
VL: B1 VL
notes: Fab; also called clone G102
B5: LM609 grafted antibody variant H97 (Fab, V domains shown)
VH: B1 VH with Y101H, A106Y
VL: B1 VL
notes: Fab
B6: LM609 grafted antibody variant K52 (Fab, V domains shown)
VH: B1 VH with S52K, A106Y
VL: B1 VL
notes: Fab
B7: LM609 grafted antibody variant L96 (Fab, V domains shown)
VH: B1 VH with A106Y
VL: B1 VL with H96L
notes: Fab
B8: LM609 grafted antibody variant N92 (Fab, V domains shown)
VH: B1 VH with A106Y
VL: B1 VL with G92N
notes: Fab; also called LM609 grafted antibody having Asn at position 92 of light chain CDR3
B9: LM609 grafted antibody variant P60 (Fab, V domains shown)
VH: B1 VH with L61P, A106Y
VL: B1 VL
notes: Fab
B10: LM609 grafted antibody variant S51 (Fab, V domains shown)
VH: B1 VH with A106Y
VL: B1 VL with R51S
notes: Fab
B11: LM609 grafted antibody variant S102 (Fab, V domains shown)
VH: B1 VH with A106S
VL: B1 VL
notes: Fab; also called clone S102
B12: LM609 grafted antibody variant T27 (Fab, V domains shown)
VH: B1 VH with F27T, A106Y
VL: B1 VL
notes: Fab
B13: LM609 grafted antibody variant T92 (Fab, V domains shown)
VH: B1 VH with A106Y
VL: B1 VL with G92T
notes: Fab
B14: LM609 grafted antibody variant T102 (Fab, V domains shown)
VH: B1 VH with A106T
VL: B1 VL
notes: Fab
B15: LM609 grafted antibody variant W29 (Fab, V domains shown)
VH: B1 VH with F29W, A106Y
VL: B1 VL
notes: Fab
B16: LM609 grafted antibody variant Y100 (Fab, V domains shown)
VH: B1 VH with F104Y, A106Y
VL: B1 VL
notes: Fab
B17: LM609 grafted antibody variant Y101 (Fab, V domains shown)
VH: B1 VH with A105Y, A106Y
VL: B1 VL
notes: Fab
B18: Vitaxin (antibody, human IgG1, V domains shown)
VH: B1 VH with A106Y
VL: B1 VL with R49K
notes: Human IgG1 constant region and human kappa constant region; also called huLM609M13 1135-4; grafted LM609

target: integrin αvβ3 on cells (M21 human melanoma cells; human umbilical vein endothelial cells) (human) (UniProt P06756); experiment: cell-based or functional assay
Sequence (P06756 31-1048, chain 1 of 2): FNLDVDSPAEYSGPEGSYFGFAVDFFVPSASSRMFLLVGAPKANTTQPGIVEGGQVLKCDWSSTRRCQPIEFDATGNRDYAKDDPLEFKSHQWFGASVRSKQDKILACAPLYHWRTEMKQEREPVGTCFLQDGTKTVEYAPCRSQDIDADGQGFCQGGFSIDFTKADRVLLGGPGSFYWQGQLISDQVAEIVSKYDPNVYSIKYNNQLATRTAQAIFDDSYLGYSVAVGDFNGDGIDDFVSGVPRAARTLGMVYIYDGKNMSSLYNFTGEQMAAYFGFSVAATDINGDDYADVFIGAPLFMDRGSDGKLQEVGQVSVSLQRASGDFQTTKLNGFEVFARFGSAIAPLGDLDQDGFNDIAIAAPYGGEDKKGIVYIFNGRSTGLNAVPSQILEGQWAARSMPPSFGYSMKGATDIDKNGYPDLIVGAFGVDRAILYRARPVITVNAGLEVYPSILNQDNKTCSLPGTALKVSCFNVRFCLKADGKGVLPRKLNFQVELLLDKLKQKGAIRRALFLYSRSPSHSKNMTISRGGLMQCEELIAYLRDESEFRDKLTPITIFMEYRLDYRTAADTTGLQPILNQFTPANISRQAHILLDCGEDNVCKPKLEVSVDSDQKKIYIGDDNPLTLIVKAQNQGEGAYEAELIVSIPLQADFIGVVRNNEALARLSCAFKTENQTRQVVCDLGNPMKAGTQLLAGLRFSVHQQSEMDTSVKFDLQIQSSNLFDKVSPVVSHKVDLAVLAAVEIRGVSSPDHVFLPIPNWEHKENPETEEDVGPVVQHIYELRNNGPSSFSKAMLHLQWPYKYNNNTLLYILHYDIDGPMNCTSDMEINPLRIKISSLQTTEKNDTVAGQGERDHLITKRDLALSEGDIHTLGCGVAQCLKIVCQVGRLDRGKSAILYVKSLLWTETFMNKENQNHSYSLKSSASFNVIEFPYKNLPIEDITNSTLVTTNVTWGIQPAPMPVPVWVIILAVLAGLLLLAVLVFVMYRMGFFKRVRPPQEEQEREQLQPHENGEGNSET
Sequence (P05106 27-788, chain 2 of 2, further chain): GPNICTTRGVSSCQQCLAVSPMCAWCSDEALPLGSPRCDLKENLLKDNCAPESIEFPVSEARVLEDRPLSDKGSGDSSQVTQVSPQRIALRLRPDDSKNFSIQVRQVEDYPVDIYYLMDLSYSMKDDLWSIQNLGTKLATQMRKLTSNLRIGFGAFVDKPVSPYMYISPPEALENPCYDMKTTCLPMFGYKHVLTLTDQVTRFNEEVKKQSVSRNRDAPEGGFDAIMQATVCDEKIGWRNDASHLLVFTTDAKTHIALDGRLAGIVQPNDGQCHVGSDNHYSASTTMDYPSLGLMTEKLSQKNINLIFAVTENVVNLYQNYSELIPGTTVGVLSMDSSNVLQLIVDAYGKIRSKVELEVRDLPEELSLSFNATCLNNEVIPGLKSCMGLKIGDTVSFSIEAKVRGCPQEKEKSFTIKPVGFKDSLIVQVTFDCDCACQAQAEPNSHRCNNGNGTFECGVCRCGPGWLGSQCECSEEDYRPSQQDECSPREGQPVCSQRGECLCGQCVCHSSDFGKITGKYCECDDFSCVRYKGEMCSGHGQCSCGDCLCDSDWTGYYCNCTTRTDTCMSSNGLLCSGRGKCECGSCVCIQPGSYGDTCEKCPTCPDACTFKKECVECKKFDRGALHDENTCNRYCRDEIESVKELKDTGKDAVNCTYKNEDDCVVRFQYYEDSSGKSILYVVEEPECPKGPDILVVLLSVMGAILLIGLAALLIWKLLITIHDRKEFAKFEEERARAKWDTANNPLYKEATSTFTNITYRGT

Molecule	inhibition of M21 cell adhesion to fibrinogen: inhibitory concentration for 50% maximal adhesion [ng/mL]	inhibition of vitronectin-induced migration of human umbilical vein endothelial cells (transwell), 5 µg/ml antibody [%]
monoclonal antibody LM609	50	60

target: T1, integrin αvβ3, purified from human placenta (human, UniProt P06756 31-1048; P05106 27-788); experiment: ELISA titration of Fab on immobilized αvβ3
T1 construct: mature; Native heterodimer, immobilized on ELISA plates or on the BIAcore chip; biotinylated in capture lift and capture ELISA screens; also called αvβ3 receptor; vitronectin receptor
T1 sequence (P06756 31-1048, form in doubt, chain 1 of 2): as the sequence (P06756 31-1048, chain 1 of 2) above
T1 sequence (P05106 27-788, form in doubt, chain 2 of 2): as the sequence (P05106 27-788, chain 2 of 2, further chain) above
Description: (§1) Just prior to use, the plates were washed two times and were then incubated 1 h at 25° C. with various dilutions of Fab. […] All dilutions and washes were in 50 mM Tris-HCl, pH 7.4, 100 mM NaCl, 2 mM CaCl₂, and 1 mM MgCl₂.

Molecule	fold enhanced binding over parent LM609 grafted antibody [fold]
B1	> 3
B2	> 3
B3	> 3
B4	> 3
B5	> 3
B6	> 3
B7	> 3
B8	> 3
B9	> 3
B10	> 3
B11	> 3
B12	> 3
B13	> 3
B14	> 3
B15	> 3
B16	> 3
B17	> 3

target: T1, integrin αvβ3, purified from human …; experiment: SPR (BIAcore), purified Fab over immobilized αvβ3

Molecule	fold slower dissociation than LM609 grafted antibody [fold]	fold enhanced affinity over LM609 grafted antibody [fold]	fold higher affinity than LM609 grafted antibody [fold]	fold increase in affinity over parent LM609 grafted antibody [fold]
B3	11.8	–	–	–
B4	–	2.2	–	–
B5	1.6	–	–	–
B11	–	–	4.6	–
B17	–	–	–	12.5

target: T1, integrin αvβ3, purified from human …; experiment: SPR (BIAcore), purified Fab over immobilized αvβ3; remark: another data set of the same source
Description: The affinities of select variants were further characterized by utilizing surface plasmon resonance (BIAcore) to measure the association and dissociation rates of purified Fab with immobilized αᵥβ₃. […] To obtain association rate constants (kₒₙ), the binding rate at five different Fab concentrations, ranging from 5-40 μg/ml in 50 mM Tris-HCl, pH 7.4, 100 mM NaCl, 2 mM CaCl₂, and 1 mM MgCl₂, was determined at a flow rate of 10 μl/min. Dissociation rate constants (koff) were the average of five measurements obtained by analyzing the dissociation phase at an increased flow rate (40 μl/min). Sensorgrams were analyzed with the BIAevaluation 2.1 program (Pharmacia). Residual Fab was removed after each measurement with 10 mM HCl, 2 mM CaCl₂ and 1 mM MgCl₂.

Molecule	Kd [nM]	koff [s⁻¹]	kon [M⁻¹ s⁻¹]
B1	8.3	0.00227	275000
B2	3.5	0.00097	276000
B3	2.5	0.00042	167000
B4	12.5	0.00201	161000
B5	13.8	0.00303	220000
B6	12.2	0.00218	178000
B7	9.2	0.00223	243000
B8	5.7	0.00135	236000
B9	5.8	0.00185	318000
B11	6	0.00144	242000
B14	5.8	0.00143	246000
B16	14.3	0.00251	175000
B17	2.2	0.00048	218000

target: T2, integrin αvβ5 (human, UniProt P06756 31-1048; P18084 24-799); experiment: ELISA on coated integrin, goat anti-human IgG-alkaline phosphatase
T2 construct: mature
T2 sequence (P06756 31-1048, chain 1 of 2): as the sequence (P06756 31-1048, chain 1 of 2) above
T2 sequence (P18084 24-799, chain 2 of 2): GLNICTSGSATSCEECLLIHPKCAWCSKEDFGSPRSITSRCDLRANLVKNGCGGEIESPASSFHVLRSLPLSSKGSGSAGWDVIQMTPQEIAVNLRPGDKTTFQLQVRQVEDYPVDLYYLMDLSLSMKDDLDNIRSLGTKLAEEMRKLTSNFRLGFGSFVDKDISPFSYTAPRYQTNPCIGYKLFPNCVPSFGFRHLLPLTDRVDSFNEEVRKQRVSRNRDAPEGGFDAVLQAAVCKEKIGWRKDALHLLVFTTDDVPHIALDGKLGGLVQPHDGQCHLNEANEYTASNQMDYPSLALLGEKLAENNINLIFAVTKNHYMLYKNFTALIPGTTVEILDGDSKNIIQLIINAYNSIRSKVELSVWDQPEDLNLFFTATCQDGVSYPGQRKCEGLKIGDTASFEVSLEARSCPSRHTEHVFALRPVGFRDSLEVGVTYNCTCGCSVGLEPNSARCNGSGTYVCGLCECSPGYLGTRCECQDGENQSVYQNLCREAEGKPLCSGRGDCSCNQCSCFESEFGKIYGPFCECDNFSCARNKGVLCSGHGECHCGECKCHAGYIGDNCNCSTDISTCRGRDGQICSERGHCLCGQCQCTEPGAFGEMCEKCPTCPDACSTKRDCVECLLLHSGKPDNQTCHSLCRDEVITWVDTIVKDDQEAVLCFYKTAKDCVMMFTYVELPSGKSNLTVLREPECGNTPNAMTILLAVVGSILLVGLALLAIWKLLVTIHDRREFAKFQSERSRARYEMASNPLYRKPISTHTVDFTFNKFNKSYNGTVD
Description: Antibody binding activity was assessed by ELISA using a goat anti-human IgG-alkaline phosphatase conjugate.

Molecule	binding result
B18	no binding (tested: over 1.0 mg/ml)

target: T1, integrin αvβ3, purified from human …; experiment: ELISA titration of bacterial lysate Fab on immobilized αvβ3, inflection points
Description: as §1

Molecule	fold improved affinity over LM609 grafted antibody [fold]
B11	> 3
B16	> 3
B17	> 3
